According to US20240035010, “COMPOSITIONS COMPRISING A VARIANT POLYPEPTIDE AND USES THEREOF” (Arbor Biotechnologies, Inc., published 2024):

Biological target: T1, variant nuclease SEQ ID NO: 53 (P14R, D32R, I61R, E311R, T338G, E736G)
T1 chain: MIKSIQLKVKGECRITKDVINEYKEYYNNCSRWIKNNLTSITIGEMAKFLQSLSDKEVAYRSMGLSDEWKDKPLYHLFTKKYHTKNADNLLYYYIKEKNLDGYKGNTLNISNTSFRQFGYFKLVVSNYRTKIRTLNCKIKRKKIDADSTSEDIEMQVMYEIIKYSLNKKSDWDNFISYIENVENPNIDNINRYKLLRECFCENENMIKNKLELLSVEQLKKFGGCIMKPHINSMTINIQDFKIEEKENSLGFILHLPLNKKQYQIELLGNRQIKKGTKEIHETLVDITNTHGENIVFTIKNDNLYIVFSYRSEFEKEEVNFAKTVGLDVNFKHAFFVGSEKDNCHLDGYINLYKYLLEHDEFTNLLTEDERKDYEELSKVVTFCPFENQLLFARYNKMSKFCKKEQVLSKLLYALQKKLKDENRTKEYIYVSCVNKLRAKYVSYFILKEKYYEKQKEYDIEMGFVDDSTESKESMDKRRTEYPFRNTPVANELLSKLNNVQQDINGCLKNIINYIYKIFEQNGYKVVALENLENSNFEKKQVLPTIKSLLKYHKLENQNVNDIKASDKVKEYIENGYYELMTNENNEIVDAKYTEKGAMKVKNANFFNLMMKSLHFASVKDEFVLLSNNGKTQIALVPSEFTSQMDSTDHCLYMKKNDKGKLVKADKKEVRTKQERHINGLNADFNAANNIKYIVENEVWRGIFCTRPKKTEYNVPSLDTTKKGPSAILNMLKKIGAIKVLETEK
Assay: cell_activity; nearly 0.6; HEK293T; PAM 5'-TTTG-3'
Conditions: tags: pcDNA3.1 expression
Procedure: Approximately 16 hours prior to transfection, 25,000 HEK293T cells in DMEM/10% FBS+Pen/Strep (D10 media) were plated into each well of a 96-well plate. On the day of transfection, the cells were 70-90% confluent. For each well to be transfected, a mixture of Lipofectamine 2000™ and Opti-MEM™ was prepared and incubated at room temperature for 5 minutes (Solution 1). After incubation, the Lipofectamine 2000™:Opti-MEM™ mixture was added to a separate mixture containing nuclease plasmid, RNA guide plasmid, and Opti-MEM™ (Solution 2). In the case of negative controls, the RNA guide plasmid was not included in Solution 2. Solutions 1 and 2 were mixed by pipetting up and down, then incubated at room temperature for 25 minutes. Following incubation, the Solution 1 and 2 mixture was added dropwise to each well of a 96-well plate containing the cells. Approximately 72 hours post transfection, cells were trypsinized by adding TrypLE™ to the center of each well and incubating at 37° C. for approximately 5 minutes. D10 media was then added to each well and mixed to resuspend cells. The resuspended cells were centrifuged at 500 g for 10 minutes to obtain a pellet, and the supernatant was discarded. The cell pellet was then resuspended in QuickExtract™ buffer (Lucigen®), and cells were incubated at 65° C. for 15 minutes, 68° C. for 15 minutes, and 98° C. for 10 minutes. […]

B1: VEGFA_T1 crRNA ; VEGFA_T1 target (ssRNA ; dsDNA)
RNA: CCUGUUGUGAAUACUCUUUUAUAGGUAUCAAACAACUCCUGGUGAAAGGCAGCCCU
DNA 1: TCCTGGTGAAAGGCAGCCCT
DNA 2: AGGGCTGCCTTTCACCAGGA
activity: ~0.6 indel ratio
